The values that follow are results of earlier work, collected in article PMC9241160.

This series has as its target Fibrinogen beta chain N-terminal fibrinopeptide (Homo sapiens) (UniProt P02675).

By Kd is commonly meant the free concentration of one partner at which half of the binding sites on the other are occupied at equilibrium, for simple one-to-one binding. In the case of SdrG N2-N3 (from UniProt Q9KI13), the Kd is 400 nM.
